Experimental data: patent US20110118447A1
Residue numbers refer to the chain shown, from its start. Names and notes keep the numbering of the source.

B1: C5A (XPA23) VH G56E (antibody, V domains shown)
VH: EVQLLESGGGLVQPGGSLRLSCAASGFTFSKYFMFWVRQAPGKGLEWVSVISPSGEMTRYADSVKGRFTISRDNSKNTLYLQMNSLRAEDTAVYYCARVGYGGNSDYWGQGTLVTVSS
VL: DIQMTQSPSSVSASVGDRLTIICRASQDINRWLAWYQQTPGNAPKLLIHSATSLQSGVPSRFSGSGSGTDFTLTINSLQPEDFATYYCQQADSFPLTFGGGTKVEIK
B2: C5A (XPA23) VH G56K (antibody, V domains shown)
VH: B1 VH with E56K
VL: B1 VL
B3: C5A (XPA23) VH G56H (antibody, V domains shown)
VH: B1 VH with E56H
VL: B1 VL
B4: C5A (XPA23) VH G56R (antibody, V domains shown)
VH: B1 VH with E56R
VL: B1 VL
B5: C5A (XPA23) VH G56T (antibody, V domains shown)
VH: B1 VH with E56T
VL: B1 VL
B6: C5A (XPA23) VH G56N (antibody, V domains shown)
VH: B1 VH with E56N
VL: B1 VL
B7: C5A (XPA23) VH G56Q (antibody, V domains shown)
VH: B1 VH with E56Q
VL: B1 VL
B8: C5A (XPA23) VH G56Y (antibody, V domains shown)
VH: B1 VH with E56Y
VL: B1 VL
B9: C5A (XPA23) VH M57K (antibody, V domains shown)
VH: B1 VH with E56G, M57K
VL: B1 VL
B10: C5A (XPA23) VH M57H (antibody, V domains shown)
VH: B1 VH with E56G, M57H
VL: B1 VL
B11: C5A (XPA23) VH M57R (antibody, V domains shown)
VH: B1 VH with E56G, M57R
VL: B1 VL
B12: C5A (XPA23) VH M57S (antibody, V domains shown)
VH: B1 VH with E56G, M57S
VL: B1 VL
B13: C5A (XPA23) VH M57T (antibody, V domains shown)
VH: B1 VH with E56G, M57T
VL: B1 VL
B14: C5A (XPA23) VH M57N (antibody, V domains shown)
VH: B1 VH with E56G, M57N
VL: B1 VL
B15: C5A (XPA23) VH M57Q (antibody, V domains shown)
VH: B1 VH with E56G, M57Q
VL: B1 VL
B16: C5A (XPA23) VH M57Y (antibody, V domains shown)
VH: B1 VH with E56G, M57Y
VL: B1 VL
B17: C5A (XPA23) VH T58D (antibody, V domains shown)
VH: B1 VH with E56G, T58D
VL: B1 VL
B18: C5A (XPA23) VH T58H (antibody, V domains shown)
VH: B1 VH with E56G, T58H
VL: B1 VL
B19: C5A (XPA23) VH T58R (antibody, V domains shown)
VH: B1 VH with E56G, T58R
VL: B1 VL
B20: C5A (XPA23) VH T58S (antibody, V domains shown)
VH: B1 VH with E56G, T58S
VL: B1 VL
B21: C5A (XPA23) VH T58N (antibody, V domains shown)
VH: B1 VH with E56G, T58N
VL: B1 VL
B22: C5A (XPA23) VH T58Y (antibody, V domains shown)
VH: B1 VH with E56G, T58Y
VL: B1 VL
B23: C5A (XPA23) VH R59K (antibody, V domains shown)
VH: B1 VH with E56G, R59K
VL: B1 VL
B24: C5A (XPA23) VH R59S (antibody, V domains shown)
VH: B1 VH with E56G, R59S
VL: B1 VL
B25: C5A (XPA23) VH R59T (antibody, V domains shown)
VH: B1 VH with E56G, R59T
VL: B1 VL
B26: C5A (XPA23) VH R59N (antibody, V domains shown)
VH: B1 VH with E56G, R59N
VL: B1 VL
B27: C5A (XPA23) VH R59Q (antibody, V domains shown)
VH: B1 VH with E56G, R59Q
VL: B1 VL
B28: C5A (XPA23) VH V99T (antibody, V domains shown)
VH: B1 VH with E56G, V99T
VL: B1 VL
B29: C5A (XPA23) VH G100H (antibody, V domains shown)
VH: B1 VH with E56G, G100H
VL: B1 VL
B30: C5A (XPA23) VH G100S (antibody, V domains shown)
VH: B1 VH with E56G, G100S
VL: B1 VL
B31: C5A (XPA23) VH G100T (antibody, V domains shown)
VH: B1 VH with E56G, G100T
VL: B1 VL
B32: C5A (XPA23) VH G100Y (antibody, V domains shown)
VH: B1 VH with E56G, G100Y
VL: B1 VL
B33: C5A (XPA23) VH Y101E (antibody, V domains shown)
VH: B1 VH with E56G, Y101E
VL: B1 VL
B34: C5A (XPA23) VH Y101H (antibody, V domains shown)
VH: B1 VH with E56G, Y101H
VL: B1 VL
B35: C5A (XPA23) VH Y101R (antibody, V domains shown)
VH: B1 VH with E56G, Y101R
VL: B1 VL
B36: C5A (XPA23) VH Y101T (antibody, V domains shown)
VH: B1 VH with E56G, Y101T
VL: B1 VL
B37: C5A (XPA23) VH Y101N (antibody, V domains shown)
VH: B1 VH with E56G, Y101N
VL: B1 VL
B38: C5A (XPA23) VH Y101Q (antibody, V domains shown)
VH: B1 VH with E56G, Y101Q
VL: B1 VL
B39: C5A (XPA23) VH G102N (antibody, V domains shown)
VH: B1 VH with E56G, G102N
VL: B1 VL

biological target: binding partner of C5A (XPA23); assay: Biacore

Row | fold affinity vs original | fold difference in affinity vs original | Binder
1 | 1.21 fold | – | B1
2 | 2.05 fold | – | B2
3 | 0.82 fold | – | B3
4 | 2.11 fold | – | B4
5 | – | 1.11 fold | B5
6 | 1.06 fold | – | B6
7 | 1.31 fold | – | B7
8 | 1.27 fold | – | B8
9 | 0.04 fold | – | B9
10 | 0.08 fold | – | B10
11 | 0.06 fold | – | B11
12 | 0.04 fold | – | B12
13 | – | 0.06 fold | B13
14 | 0.03 fold | – | B14
15 | 0.02 fold | – | B15
16 | 0.86 fold | – | B16
17 | 0.12 fold | – | B17
18 | 0.98 fold | – | B18
19 | 1.14 fold | – | B19
20 | 0.82 fold | – | B20

Row | fold affinity vs original | fold difference in affinity vs original | Binder
21 | 0.9 fold | – | B21
22 | 1.01 fold | – | B22
23 | 0.94 fold | – | B23
24 | 0.13 fold | – | B24
25 | – | 0.76 fold | B25
26 | 0.86 fold | – | B26
27 | 0.86 fold | – | B27
28 | – | 0.1 fold | B28
29 | 0.06 fold | – | B29
30 | 2.8 fold | – | B30
31 | – | 0.12 fold | B31
32 | 0.09 fold | – | B32
33 | 0.03 fold | – | B33
34 | 0.04 fold | – | B34
35 | 0.85 fold | – | B35
36 | – | 0.06 fold | B36
37 | 0.06 fold | – | B37
38 | 0.06 fold | – | B38
39 | 1.17 fold | – | B39

biological target: binding partner of C5A (XPA23); assay: Biacore, K-off

Row | fold difference in affinity vs original | Binder
40 | 1.21 fold | B1
41 | 2.05 fold | B2
42 | 0.82 fold | B3
43 | 2.11 fold | B4
44 | 1.11 fold | B5
45 | 1.06 fold | B6
46 | 1.31 fold | B7
47 | 1.27 fold | B8
48 | 0.04 fold | B9
49 | 0.08 fold | B10
50 | 0.06 fold | B11
51 | 0.04 fold | B12
52 | 0.06 fold | B13
53 | 0.03 fold | B14
54 | 0.02 fold | B15
55 | 0.86 fold | B16
56 | 0.12 fold | B17
57 | 0.98 fold | B18
58 | 1.14 fold | B19
59 | 0.82 fold | B20

Row | fold difference in affinity vs original | Binder
60 | 0.9 fold | B21
61 | 1.01 fold | B22
62 | 0.94 fold | B23
63 | 0.13 fold | B24
64 | 0.76 fold | B25
65 | 0.86 fold | B26
66 | 0.86 fold | B27
67 | 0.1 fold | B28
68 | 0.06 fold | B29
69 | 2.8 fold | B30
70 | 0.12 fold | B31
71 | 0.09 fold | B32
72 | 0.03 fold | B33
73 | 0.04 fold | B34
74 | 0.85 fold | B35
75 | 0.06 fold | B36
76 | 0.06 fold | B37
77 | 0.06 fold | B38
78 | 1.17 fold | B39
